Results taken from the supplement of paper PMC9170038.

Test system: MS2 coat protein
Assay: apparent KD of MS2 coat protein; designed switch direction (-1 OFF switch, 1 ON switch): -1; higher = weaker reporter binding
How it was run: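 Designed RNA switches with common flanks were transcribed on Illumina chips by stalled E. coli RNA polymerase and titrated with SNAP-549-labelled MS2 coat protein, from 0.7 or 1.5 nM doubling to 3 µM, in Tris-HCl pH 7.5 buffer with KCl, MgCl2, BSA, DTT, tRNA and Tween-20. Steps lasted 0.8–1.5 h (lowest) to 10–20 min (highest). Titrations ran without input, with 200 uM small-molecule ligand, or with an oligonucleotide input. Normalised cluster fluorescence was curve-fitted, and apparent KD is the per-design median over clusters.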

[1] = input ligand: microRNA oligo, concentration not stated
[2] = Eterna round: R95, input ligand: FMN 200 uM
[3] = Eterna round: R95, input ligand: microRNA oligo, concentration not stated
[4] = Eterna round: R95, input ligand: none

## AAAAGGCGAGGAUAUACAGACCUCGGAAAAUCAAAGCAGAGACAUGAGGAUCACCCAUGUAGAAGGCGCAACAA [Geerbiorer] (Eterna round: R97, puzzle: Exclusion 2)
Input ligand: FMN 200 uM
  apparent KD of MS2 coat protein: 20.8 nM
Input ligand: none
  apparent KD of MS2 coat protein: 15.9 nM

## GGAGAGGUAGGAUAUCCACUUUAGAACAUGAGGAUCACCCAUGUAGAACCACAUGAAAUGGGAGAAGGACCAGGGA [AK-MS2ROC-r4-exclusion5-3] (Eterna round: R97, puzzle: Exclusion 5)
Input ligand: FMN 200 uM
  apparent KD of MS2 coat protein: 65.3 nM
Input ligand: none
  apparent KD of MS2 coat protein: 56.1 nM

## UUGUUACAUGAGGAUCACCCAUGUGAGGAUAUGAGUCAGUCACGGUGACGUGGCUGACUCAGAAGGCACAAAGG [Mat - Exclusion 1 - JL Mod - D40] (Eterna round: R97, puzzle: Exclusion 1)
Input ligand: FMN 200 uM
  apparent KD of MS2 coat protein: 310 nM
Input ligand: none
  apparent KD of MS2 coat protein: 120 nM

## GGGUGACAUGAGGAUCACCCAUGUCAGGAUAUGGGCCCGGGCCCGAAAGGGCCCGGGUUUAGAAGGGACUGCCC [-44.4, -43.4 kcal, 22%A (-3 GC series)] (Eterna round: R97, puzzle: Exclusion 1)
Input ligand: FMN 200 uM
  apparent KD of MS2 coat protein: 59.3 nM
Input ligand: none
  apparent KD of MS2 coat protein: 42.9 nM

## CGAUAAAGCUGAGGAUAUGAGAAUAGAAAGAAAUCAGAAGGCAGACAUGAGGAUCACCCAUGUGAGUUCUCGAGAUUACAUGGU [Prohibition 46 - Jieux - Exclusion NG 1] (Eterna round: R96, puzzle: Exclusion NG 1)
[1]
  apparent KD of MS2 coat protein: 112 nM

## AAAAGGCAGGGAGGAUAUGCUUGCCUGGGUCGUCUUCAAACAUGAGGAUCACCCAUGUAGUCGACGCAGAAGGCCCUCAAAGAA [Mat - Exclusion NG 2 - Mod of JL - D62] (Eterna round: R96, puzzle: Exclusion NG 2)
Input ligand: FMN 200 uM
  apparent KD of MS2 coat protein: 37.7 nM
[1]
  apparent KD of MS2 coat protein: 40.8 nM
Input ligand: none
  apparent KD of MS2 coat protein: 57.2 nM

## GCACGGAGUGUAGGAUAUCUGUGCGAUUAGCUCAGAGAAGGACACAUGAGGAUCACCCAUGUGUUCCACCGAAAGGUUCCGUGC [Eli exng1 - 048] (Eterna round: R96, puzzle: Exclusion NG 1)
Input ligand: FMN 200 uM
  apparent KD of MS2 coat protein: 11 nM
[1]
  apparent KD of MS2 coat protein: 8.4 nM
Input ligand: none
  apparent KD of MS2 coat protein: 11.4 nM

## CGUCUGUGAGGAUAUGGUAUCGUUUACAUGAGGAUCACCCAUGUUACAUGGGACUAGAGACUAGAAGGUACGGACG [EX5 #48] (Eterna round: R97, puzzle: Exclusion 5)
Input ligand: FMN 200 uM
  apparent KD of MS2 coat protein: 461 nM
Input ligand: none
  apparent KD of MS2 coat protein: 391 nM

## UCAAGUAUGUAGGAUAUCGAUGUCCUUGGACAUCGAGAAGGACGUACAUGAGGAUCACCCAUGUAACUUGCAUG [Exclusion 6 - B - 10:e] (puzzle: Exclusion 6)
[2]
  apparent KD of MS2 coat protein: 103 nM
[3]
  apparent KD of MS2 coat protein: 138 nM
[4]
  apparent KD of MS2 coat protein: 94.5 nM

## AGGUGUAGAGGAUAUUUAUUCUUCCACAUGAGGAUCACCCAUGUCCUGGUCACCAAGGACGGAGAAGGCUACACCA [Omei Ex5 D24] (Eterna round: R97, puzzle: Exclusion 5)
Input ligand: FMN 200 uM
  apparent KD of MS2 coat protein: 57.4 nM
Input ligand: none
  apparent KD of MS2 coat protein: 63.5 nM

## AAAUACAAGUAAAGAUCCUACAUGAGGAUCACCCAUGUGCUCGUCUUAUAAAGUACUAUCACGAAAGUGAUAGUACA [Sensor 3, v1 - 20] (puzzle: Sensor v3, turn-off variant 1)
[2]
  apparent KD of MS2 coat protein: 88.6 nM
[3]
  apparent KD of MS2 coat protein: 13.9 nM
[4]
  apparent KD of MS2 coat protein: 112 nM

## CUGAGCUGAGGAUAUACAUGAGGAUCACCCAUGUGUUCGAGCUUGCGUACAGGCAGAUGUAGAAGGCAGUUCGG [JL-ex3-3.34 Brourd mod] (puzzle: Exclusion 3)
[3]
  apparent KD of MS2 coat protein: 23.8 nM

## UUGUAGUUUGUAGGAUAUGGUUAUGUAUGUAAUCUAGAAGGACAUGAGGAUCACCCAUGUGGAGGUAAGUUGGGAAGAAGUAAU [random1] (Eterna round: R96, puzzle: Exclusion NG 1)
Input ligand: FMN 200 uM
  apparent KD of MS2 coat protein: 55.6 nM
[1]
  apparent KD of MS2 coat protein: 30.8 nM
Input ligand: none
  apparent KD of MS2 coat protein: 56.4 nM

## GGGCUCGGAGGAUAUACAUGAGGAUCACCCAUGUAGGGCCCGGGUAUUCCCGGGCCCUGUAGAAGGCUGGGUCU [-39, -36.1 kcal, A 19%, 0-7] (Eterna round: R97, puzzle: Exclusion 3)
Input ligand: FMN 200 uM
  apparent KD of MS2 coat protein: 19.7 nM
Input ligand: none
  apparent KD of MS2 coat protein: 16.5 nM

## GUCUUACAUGAGGAUCACCCAUGUGAGGAUAUGGAUUCGCUGGCCGUAGCCAGUGGAUCCAGAAGGCGCAUGAU [JL-ex1-4.04] (Eterna round: R97, puzzle: Exclusion 1)
Input ligand: FMN 200 uM
  apparent KD of MS2 coat protein: 50.9 nM
Input ligand: none
  apparent KD of MS2 coat protein: 39.2 nM

## AUCAGCUCGUGAGGAUAUAUUAACAUGAGGAUCACCCAUGUAAGAUCAGGCUUCGGCCAAUGUUAAUAGAAGGCACGAGCUGAU [ENG2/12-A2] (Eterna round: R96, puzzle: Exclusion NG 2)
Input ligand: FMN 200 uM
  apparent KD of MS2 coat protein: 239 nM
[1]
  apparent KD of MS2 coat protein: 56.3 nM
Input ligand: none
  apparent KD of MS2 coat protein: 170 nM

## ACAUGUCAUUGAGGAUAUCGCACACAUGAGGAUCACCCAUGUAAACGGAUGCUCUUUCGUGGUUUCGAGAAGGCGAUGUACAUU [Ex NG2 #97] (Eterna round: R96, puzzle: Exclusion NG 2)
Input ligand: FMN 200 uM
  apparent KD of MS2 coat protein: 438 nM
[1]
  apparent KD of MS2 coat protein: 335 nM
Input ligand: none
  apparent KD of MS2 coat protein: 182 nM

## GAGAAAGCAAGCAAGUGAAACAUGAGGAUCACCCAUGUCCUCAUUUGCUCGUCUUAUAAGCUAUGCGAAAGCAUAGC [Mat - Sensor v3 - turn-off var 1 - Eli Mod - D50] (puzzle: Sensor v3, turn-off variant 1)
[2]
  apparent KD of MS2 coat protein: 12.3 nM
[3]
  apparent KD of MS2 coat protein: 101 nM
[4]
  apparent KD of MS2 coat protein: 11.3 nM

## CAAAACUGAGGAUAUACAUGAGGAUCACCCAUGUCCAAGGUCCUGGGCGGAUGCUGCUGUAGAAGGCGGAAAGA [Diatsobi] (puzzle: Exclusion 3)
[3]
  apparent KD of MS2 coat protein: 21.8 nM

## GGUUGACAUGAGGAUCACCCAUGUGAGGAUAUGCGAGAGAAAAAAGUGAGGAAGGAAUGCAGAAGGCGCUGUCG [salish99-ex1_r3_018] (puzzle: Exclusion 1)
[2]
  apparent KD of MS2 coat protein: 43.3 nM
[3]
  apparent KD of MS2 coat protein: 54.3 nM
[4]
  apparent KD of MS2 coat protein: 57.7 nM

## UUUUUUUUGUUUUUUGUUUACAUGAGGAUCACCCAUGUGACGAGUUUAUGGGUGAACAAGCUUUUUGCUCGUCUUAU [Sensor v3 - Turn-off variant 1 - 5] (puzzle: Sensor v3, turn-off variant 1)
[2]
  apparent KD of MS2 coat protein: 52.4 nM
[3]
  apparent KD of MS2 coat protein: 17.8 nM
[4]
  apparent KD of MS2 coat protein: 140 nM

## AGUAGUUGUUUCCGUUCUUACAUGAGGAUCACCCAUGUUUCUUGUCGUGCUCGCGUUGCUCGUCAGACUUCCUGUUG [salish99_TOv1_r3_063] (puzzle: Sensor v3, turn-off variant 1)
[2]
  apparent KD of MS2 coat protein: 87.2 nM
[3]
  apparent KD of MS2 coat protein: 102 nM
[4]
  apparent KD of MS2 coat protein: 123 nM

## GAAAAGGUAGGAUAUACAAAAAAAAAGGGUAGAAAAAAAACACAUGAGGAUCACCCAUGUAGAAGGACCAAAAG [salish99_ex2_r3_057] (puzzle: Exclusion 2)
[2]
  apparent KD of MS2 coat protein: 83.7 nM
[3]
  apparent KD of MS2 coat protein: 37 nM
[4]
  apparent KD of MS2 coat protein: 25.9 nM

## GCAAGCGACUAGGCUCGUCUUAUAUUGAAAAGAUUGAAAACAUGAGGAUCACCCAUGUAUGUGGGAGAGUUGAAGUG [JR_SV3TOV2_Sub011] (puzzle: Sensor v3, turn-off variant 2)
[2]
  apparent KD of MS2 coat protein: 286 nM
[3]
  apparent KD of MS2 coat protein: 395 nM
[4]
  apparent KD of MS2 coat protein: 310 nM

## GUCGAGUGAGGAUAUGGUGAGUAGUGCCUGAGCGCUGCUCACCAGAAGGCACAUGAGGAUCACCCAUGUAUGUC [JL-ex4-2.04 denovo] (puzzle: Exclusion 4)
[3]
  apparent KD of MS2 coat protein: 12.3 nM

## GAAAGGUGAGGAUAUACACUGCGGUGUAGUCCUCAUAAAAGACAUGAGGAUCACCCAUGUAGAAGGCACAUAAA [Rirereis] (puzzle: Exclusion 2)
[2]
  apparent KD of MS2 coat protein: 96 nM
[3]
  apparent KD of MS2 coat protein: 32.8 nM
[4]
  apparent KD of MS2 coat protein: 27.5 nM

## AUAAAGUGAGGAUAUAUAAGACACGGUGAUACACCGUGAAAAUAGAAGGUACAUGAGGAUCACCCAUGUUGGGC [Mod of Anonveat 19 - Jieux - Exclusion 4] (Eterna round: R97, puzzle: Exclusion 4)
Input ligand: FMN 200 uM
  apparent KD of MS2 coat protein: 50.2 nM
Input ligand: none
  apparent KD of MS2 coat protein: 53.7 nM

## UUUUGGCAAGCGAGAUCCCACAUGAGGAUCACCCAUGUUGACCAUGGUUUCCAUGGUCAUUUUGCUCGUCUUGUGUG [jl TITIN mod 1] (Eterna round: R97, puzzle: Sensor, turn-off variant 1)
Input ligand: FMN 200 uM
  apparent KD of MS2 coat protein: 31.3 nM
Input ligand: none
  apparent KD of MS2 coat protein: 31.8 nM

## UAACAAAUUGUCAGGAUAUCAAUCCCGGCCCAGAUUGAGAAGGGACAUGAGGAUCACCCAUGUAUGAUUCUCAA [jl-ex4-4.51 ViennaUCT mod] (Eterna round: R97, puzzle: Brourd's mod of Exclusion 4)
Input ligand: FMN 200 uM
  apparent KD of MS2 coat protein: 65.4 nM
Input ligand: none
  apparent KD of MS2 coat protein: 31.9 nM

## AAAACGUGAGGAUAUACUGUGAGAUCUCAAGGUACGUUAAGACAUGAGGAUCACCCAUGUAGAAGGCGCCAAAA [Eternabot (Original) Solution 15] (Eterna round: R97, puzzle: Exclusion 2)
Input ligand: FMN 200 uM
  apparent KD of MS2 coat protein: 57.3 nM
Input ligand: none
  apparent KD of MS2 coat protein: 30.9 nM

## GAGACAGAAGGAUAUACGUCCGCGAGUGCGAUGCGCUUGGGACAUGAGGAUCACCCAUGUAGAAGGUCUAACCC [Eternabot (L1) Solution 89] (Eterna round: R97, puzzle: Exclusion 2)
Input ligand: FMN 200 uM
  apparent KD of MS2 coat protein: 318 nM
Input ligand: none
  apparent KD of MS2 coat protein: 251 nM

## AGAGUACUGCGAGGAUAUACAUGAGGAUCACCCAUGUGGUGGUGUGAGGCAAAGCCUCACACCAUGUAGAAGGCGCAGUACUCA [Mat - Exclusion NG 2 - Mod of JL - D20] (Eterna round: R96, puzzle: Exclusion NG 2)
Input ligand: FMN 200 uM
  apparent KD of MS2 coat protein: 159 nM
[1]
  apparent KD of MS2 coat protein: 26.6 nM
Input ligand: none
  apparent KD of MS2 coat protein: 42.3 nM

## AGAUGUUAUAAGGAUAUGCAGGCCAUCGCAUCAGCAGAAGGUGUAACAUGAGGAUCACCCAUGUAAACGAACUG [Eternabot (L1) Solution 44] (Eterna round: R97, puzzle: Exclusion 6)
Input ligand: FMN 200 uM
  apparent KD of MS2 coat protein: 28.9 nM
Input ligand: none
  apparent KD of MS2 coat protein: 22.8 nM
